Laboratory results published in the Immune Epitope Database (IEDB).

Experiments:
HLA-B*40:02 = assay: IEDB peptide-MHC binding, purified MHC/competitive/radioactivity; filed as Kd, often an IC50 or EC50 that approximates it; ≥ and ≤ were set here for values at or beyond the usual limits of such assays
HLA-B*44:03 = assay: as above
HLA-B*18:01 [1] = assay: as above
HLA-B*45:01 = assay: as above
HLA-B*40:01 = assay: as above
HLA-B*44:02 = assay: as above
HLA-A*03:01 = assay: IEDB peptide-MHC binding, purified MHC/direct/fluorescence; filed as Kd, often an IC50 or EC50 that approximates it; ≥ and ≤ were set here for values at or beyond the usual limits of such assays; settings: source organism: Orthohantavirus tulaense
HLA-A*02:01 [2] = assay: as above; settings: source organism: Orthohantavirus andesense
HLA-B*51:01 = assay: IEDB peptide-MHC binding, purified MHC/competitive/fluorescence; filed as Kd, often an IC50 or EC50 that approximates it; ≥ and ≤ were set here for values at or beyond the usual limits of such assays; settings: source organism: Orthohantavirus tulaense
HLA-B*57:01 = assay: as above; settings: source organism: Orthohantavirus tulaense
HLA-B*18:01 [3] = assay: as above; settings: source organism: Orthohantavirus tulaense
HLA-A*26:01 = assay: as above; settings: source organism: Orthohantavirus tulaense
HLA-B*15:01 = assay: as above; settings: source organism: Orthohantavirus tulaense
HLA-B*27:03 = assay: as above; settings: source organism: Orthohantavirus tulaense
HLA-A*02:01 [4] = assay: IEDB peptide-MHC binding, purified MHC/competitive/radioactivity; filed as Kd, often an IC50 or EC50 that approximates it; ≥ and ≤ were set here for values at or beyond the usual limits of such assays; settings: source organism: Homo sapiens
[5] = source organism: Lymphocytic choriomeningitis virus (strain Armstrong)
[6] = source organism: SARS coronavirus Tor2
[7] = source organism: Mammarenavirus guanaritoense

Sequence	Kd (HLA-B*40:02; [6]) [nM]	Kd (HLA-B*44:03; [6]) [nM]	Kd (HLA-B*18:01 [1]; [6]) [nM]	Kd (HLA-B*45:01; [6]) [nM]	Kd (HLA-B*40:01; [6]) [nM]	Kd (HLA-B*44:02; [6]) [nM]	also measured
REAVESCPLM							Kd (HLA-B*40:02; [5]): 9.86 nM; Kd (HLA-B*44:03; [5]): 2180 nM; Kd (HLA-B*18:01 [1]; [5]): 3040 nM; Kd (HLA-B*45:01; [5]): 8140 nM; Kd (HLA-B*40:01; [5]): 105 nM; Kd (HLA-B*44:02; [5]): 525 nM
REGVFVFNG	222	298	≥ 39000	136	1550	4770	
RELNGGAVT	21.9	7290	≥ 53300	43.9	212	9110	
SDEVARDLSL	10600	3870	≥ 43200	262	353	5650	
SLFGAAVSL							Kd (HLA-A*03:01): ≥ 20000 nM; Kd (HLA-A*02:01 [2]): ≤ 0.1 nM; Kd (HLA-B*51:01): ≥ 20000 nM; Kd (HLA-B*57:01): ≥ 20000 nM; Kd (HLA-B*18:01 [3]): ≥ 20000 nM; Kd (HLA-A*26:01): ≥ 20000 nM; Kd (HLA-B*15:01): 49.7 nM; Kd (HLA-B*27:03): ≥ 20000 nM
SLHVGTQCA							Kd (HLA-A*02:01 [4]): 1440 nM
SLRVLAAGL							Kd (HLA-A*02:01 [4]): ≥ 50000 nM
TEQFINYCL							Kd (HLA-B*40:02; [7]): 32.3 nM; Kd (HLA-B*44:03; [7]): 416 nM; Kd (HLA-B*18:01 [1]; [7]): 399 nM; Kd (HLA-B*45:01; [7]): 129 nM; Kd (HLA-B*40:01; [7]): 306 nM; Kd (HLA-B*44:02; [7]): 100 nM
WEILKFLITG	542	2930	≥ 41600	1170	19000	8580	
